Results as given in the nanobody polyreactivity screen of Harvey et al. (2022).

Assay: yeast display, Sf9 membrane polyspecificity reagent, FACS + sequencing; frameworks hold sequencing errors
Method in brief: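 A synthetic nanobody library was expressed on Saccharomyces cerevisiae BJ5465 by galactose induction for 36–48 hours. The library was stained for 1 hour at 4 °C with 10% biotinylated, detergent-solubilized Sf9 membrane reagent and enriched with streptavidin microbeads before FACS. Low and high (top ~1%) gates were set on anti-HA fluorescence for expression and streptavidin fluorescence for reagent binding, and each polyreactivity label reflects the gate of origin.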

## QVQHVESGRGLVQAGGSLRLSCAASGSIFRWYTMGWYRQAPGKERELVAAITSGGTTKYADSVKGRFTISRDNAKNTVYLQMNSLKPEDTAVYYCARRHRYRYDWGQGTQVTVSS
  polyreactivity (PSR sort gate): high polyreactivity

## QVQLVESGGRLVQAGGSLRLSCAASGSTFYDYAMGWYRQAPGKERELVASIDSGDSTNYADSVKGRFTISRDNAKNTVYLQMNSLKPEDTAVYYCAADYRAPLDYWGQGTQVTVSS
  polyreactivity (PSR sort gate): low polyreactivity

## QVQLVESGGGLVQAGGSLRLSCAASGRIFSTNAMGWYRQAPGKEWELVAAITRGVSTKYADSVKGRFTISRDNAKNTVYLQMNSLKPEDTAVYYCAARVVWGPESDYWGQGTQVTVSS
  polyreactivity (PSR sort gate): low polyreactivity

## QVQLVESGGGIVQEGGSLRLSCAASGRTFGLNVMGWYRQAPGKERELVATISWSGGTTYYADSVKGRYTISRDNAKNTVYFQMKSLKPEDTGVYYCNRQVTWYPTGGYWGQGTQVTVSS
  polyreactivity (PSR sort gate): low polyreactivity

## QVQLVESGGGLVKAGGSLRLSCAASGFTFTRYAMGWYRQAPGKDRELVAAISSGSRSYYADSVKGRFTISRDNANNTVYLQMNSLKPEDTAVYNCASPDYTYYGHYDSWGQGTQVTVSS
  polyreactivity (PSR sort gate): high polyreactivity

## QVQLVESGGGLVQAGGSLRLSCAASGLIIDGYAMGWYRQAPGKERELVATITVSGTSTYYADSVKGRFTISRDNAKNTVYLQMNSLKPEDTAVYYCATDRNYGYYFVEYDHDYWGQGTQVTVSS
  polyreactivity (PSR sort gate): low polyreactivity

## QVQLVESGGGLVQAGGSLRLSCAASGSTFYFYARGWYRQAPGKERELVAVISSGGTTNYADSVKGRFTISRDNAKNTVYLQMNSLKPEDTAVYYCNAEPPRGYTVSSGGEMDYWGQGTQVTVSS
  polyreactivity (PSR sort gate): low polyreactivity

## QVQLVESGGGLVQAGGSLRLSCAASGRTFVPNAMGWYRQAPGKERELVAAISWSGDSTYYADSVKGRFTISRDNAKNTVYLQMNSLKPEDTAVYYCAARYEFFYKAFDVDSWGQGTQVTVSS
  polyreactivity (PSR sort gate): low polyreactivity

## QVQLVDSGGGLVQAGGSLRLSCPASGFNFYRNAMGSYRQAPGKERELVAAISGSGGRTYYADSVKGRFTISRDNAKNTVYLQMNSLKPEDTAVYYCATDYAYSPYRYWTRYDYWGQGTQVTVSS
  polyreactivity (PSR sort gate): high polyreactivity

## QVQLVESGGGLVQAGGSLRLSCAASARTFSYYAMGLYRQEPGKERELVAAIRRSSGTTYYADSVKGRFTISSDNAKYSVYLQMNSLKPEDTADYYCNARSRRASIKRDYWGQGTQVSVSS
  polyreactivity (PSR sort gate): high polyreactivity

## QVQLVESGGGLVQAGGSLRLSCAASGFTFSAYTMGWYRQAPGKERELVAAINWSAANTYYADSVKGRFTISRDNAKNTVSLQMNSLKPEDTAVYYCNAEDDYTYDRSFGGYKYDYWGQGTQVTVSS
  polyreactivity (PSR sort gate): low polyreactivity

## QVQLVESGGGLVQAGGSLRLSCAASGRPFYKNTMGWYRQAPGKEREFVATISASGGSTYYADSVKGRFSSSRDNATNTVYLQMNSLKPEDTAVYYCAKRDYAGYAVHIGGDMNYWGQGTQVTVSS
  polyreactivity (PSR sort gate): low polyreactivity

## QVQLVESGGGLVQAGGSLRLSCAASGLIFQYYAMGWYRQAPGKERELVAAISGSGVRSYYADSVKGRFTTSRDNAKNTVYLQMNSLKPEDTAVYYCNTLRQDIIRGDYWGQGTHVTVSS
  polyreactivity (PSR sort gate): high polyreactivity

## QVQLVESGGGLVQAGGSLRLSCAASGRTFYRNAMGWYRQAPGKERELVAAISNGGSTNYADSVKGRFTISRDNAKNTVYLQMNSLKPEDTAVYYCAKAVIRWRGSGQHGYFWYDYLGQGTQVTVSS
  polyreactivity (PSR sort gate): high polyreactivity

## QVQLVDSGGGLVQARGTLRLSCAASGSTFRVYAMGWYRQAPGKEMELVAAISSSGGITYYADSVKGRFPISRDNAKNSVYLQMNSLKPEDTEVYYCAKGTVIHVLYDYWGQGTQVTVSS
  polyreactivity (PSR sort gate): low polyreactivity

## QVQLVESGGGLVQAGGSLRLSCAASGSTFKAYAMGWYRQAPGKEREFVAAITRSGGRTYYADSVKGRFTISRDNAKNTVYLQMNSLKPEDTAVYYCAAYTWYAWVSDPTNEYWGQGTQVTVSS
  polyreactivity (PSR sort gate): low polyreactivity

## QVQLVESGGGLVQAGGSLRISCAASGRTFDHYAMGWYRPAPGKERELVAAISFSGGSTYYADSVKGRLTISRDNAKNTVYLQMNRLKPEDTAVYYCAADYAYWLSGYDYWGQGTQVTVSS
  polyreactivity (PSR sort gate): low polyreactivity

## QVQLVESGGGLVQAGGSLRLSCAASGFIFTSYALGWYRQAPGKEREFFAAISRRGGSTYYADSVKGRFTISRDNAKNTVYLQMNSLKPEDTAVYYCAADPKQHSGYDYWGQGTQVTVSS
  polyreactivity (PSR sort gate): high polyreactivity

## QVQLVESGGGLVQAGGSLRLSCAASGRIFPAYAMGWYRQAPGKERELVASIRRGGITYADSVKGRFTISRDNAKNTVYLLMNSLKPEDTAVYYCNAYVNRATAGRYYSWGQGTQVTVSS
  polyreactivity (PSR sort gate): low polyreactivity

## QVQLVESGGGLVQAGGSLSLSCAASGRTFIRNAMGWYRQAPGKERELVAAINSGGITNYADSVKGRFTISRDNAKNTVYLQMNSLKPEDTAVYYCNARQVLFGLYLRAYPFEYWGQGTQVTVSS
  polyreactivity (PSR sort gate): low polyreactivity

## QVQLQESGGGLVQAGGSLRLSCAASGYISSWYPMGWYRQAPGKEREFVATLAPGATTYYADSVKGRFTISRDYAKNTVYLQMIRLKPEDTAVYYFAAGPENNDFYSFWGQGSQVTVSS
  polyreactivity (PSR sort gate): low polyreactivity

## QVQLVESGGGLVQAGGSLRLSCAASGRTFPSYTMGWYRQAPGKERELVAAITWTGGSTYYADSVKGRFTISRDNAKNTVYLQINSLKREDTAVYYCADYEYWGQGTQVTVSS
  polyreactivity (PSR sort gate): low polyreactivity

## QVQLVESGGGLVQAGGSLRLSCAASGSTFDWYAMGWYRQAPGKEREFVAAIDQDEDSTYYADSVKGRFTISRDNAKNTVYLQMNSLKPEVTAVYYCAADHAWYSLFDYWGQGTQVTVSS
  polyreactivity (PSR sort gate): low polyreactivity

## QVQLVESGGGLVQAGGSIRLICAASGFIISWYAMGWYRQAPGKERELFAAISSGGSTTYADSVKGRFTISRDNAKNTVYLQMNSLKPEDTAVYYCNADQVYGYNYWGQGTQVTVSS
  polyreactivity (PSR sort gate): high polyreactivity

## QVQLVESGGGLVQAGGSLRLSCAASGRTFGRYTMGWYRQAPGKERELVATIRFNGGSTYYADSVKGRFTISRDNAKNTVYLQMNSLKPEDTAVYYCASYRGAYWGQGTQVTVSS
  polyreactivity (PSR sort gate): high polyreactivity

## QVQHVESGRGLVQAGGSLRLSCAASGSTFDYNALGWSRQAPGKERELVARISSSGGITDYADSVKGRFTISRDNAKNTVYLHMNSLKPDDTAVNYCARVGKSGAVTAETRRWYYYWGQGTQVTVSS
  polyreactivity (PSR sort gate): low polyreactivity

## QVQLVESGGGLVQAGGSLRLSCAASGRTFFLYTMGWYRQAPGKEREFVAAINYSGGRTYYADSVKGRVTISRDHAKNTVYLQMNSLKPEDTAVDYCNAVYSFLYPDHMGYWGQGTQVTVSS
  polyreactivity (PSR sort gate): high polyreactivity

## QVQLVESGGGLVQAGGSLRLSCAASGSTFDPYAMGWSRQAPGKEREMVAAISTSVGGTYYADSVKGRFTISRDYAKNTVNLQMNSLKPEDTAVYYCAVDYSDVQAYTSNEEDYWGQGTQVTVSS
  polyreactivity (PSR sort gate): low polyreactivity

## QVQLVESGGALVQAGGSLRLSCAASGITFYDNAMGWYRQAPGKERELVAGISYSGGRTYYADSVKGRFTISRDNAKNTVYLQMNSLIPEDTAVDYCNARFGKYRSRQGYYYWGQGTQVTVSS
  polyreactivity (PSR sort gate): high polyreactivity

## QVQLVESGGRLVQAGGSLRLSCAASGSTFGRYVMGWYRQTPGKERELVAAISYSGGRTYYADSVKLRFTISRDNAKNTVYLQMNSLNPEDTAVFYCATRVTLTRWLYDYWGQGSQVTVSS
  polyreactivity (PSR sort gate): high polyreactivity

## QVQLVESGGGLVQAGGSLRLSCAASGRTFPGNAMGWYRQAPGKERELVAAISSRGGSTYYADSVKGRFTISRDNAKNTVYLQMNSLKPEDTAVYYCARRYLPYGGYYYWGQGTQVTVSS
  polyreactivity (PSR sort gate): high polyreactivity

## QVQLVESGGGLVQAGGSLRLSCAASGLIFDSDAMGWYRQAPGKERELVAAITYTGGSTYYADSVKGRFTISRDSAKNTVYLQMNSLKPEDTAVYYCAARRQRDRYGYWGQGTKVTVSS
  polyreactivity (PSR sort gate): high polyreactivity

## QVHLVESGGGLVQAGGSLRLSCAASGFIFYSNAMGWYRQAPGKERELVAAISSGGGSTRYADSVKGRFTISRDNAKNTVYLQMNSLKPQDTAVYYCAAREGYTKFRSTRYYYWGQGTQVTVSS
  polyreactivity (PSR sort gate): high polyreactivity

## QVQLVESGGGLVQAGGSLRLSCAASGIIFSIYAMGLYRQAPGKERELVAVISRSSGSTYYADSVKGRFTISRYNAKNTVYLQMNSLKPEDTAVYYCAARKNRAYGYWGQGTQVTVSS
  polyreactivity (PSR sort gate): high polyreactivity

## QVQLVESGGGLVQAGGSLRLSCAASGSIFSSYAMGWYRQAPGKERELVASISWRSGSTYYADSVKGRFTISRDNAKNTVYLQMNSLKPEDTAVYYCATAYYRYYKYRFYYWGQGTQVTVSS
  polyreactivity (PSR sort gate): high polyreactivity

## QVQLVESGGGLVQAGGSLRLSCAASGSILAINAMGWYRQAPGKERELVAAINWSGGSTFYADSVKGRFTISRDNAKNTVYLQMNSLKPEDTAVYYCNVEWTDSERGDYYVDYDYWGQGTQVTVSS
  polyreactivity (PSR sort gate): low polyreactivity

## QVQPVESRGGLVQAGGSLRLSCAASGRIFARNAQGWYRTAPGKERELVAAITYSSGRTYYADSVKGRFTISRDNAKNTVYLQMNSLKPEHTAVYYCADGKGYIGVSVSGGYGYWGPGTQVTVSS
  polyreactivity (PSR sort gate): high polyreactivity

## QVQLVESRGGLVQAGGSLRLSCAASGITFRYYAMGWYRQEPGKERELVAAINRGGDSTYYADSVKGRFTISRDIAKNTVYLQMNSLKPVDTAVYYCAASSSNKEYDYWGLGTQVTVSS
  polyreactivity (PSR sort gate): high polyreactivity

## QVQLVESGVGLVQAGGSLRLTCAASGRIFDYYAMGWSRQAPGKETELVARISRGATTNYADSVKGRFTISRDNAKNTVYLQINSLKPEDTAVYSCNARQYLAYVSWKGMGFWGQGTQVTVSS
  polyreactivity (PSR sort gate): high polyreactivity

## QVQLVESGGGLVQAGGSLRLSCAASGRIFAAYAMGWYRQAPGKERELVAAITWRGGSTYYADSVKGRFTISRDNAKNTVYLQMNSLKPEDTAVYYCNARVYYYPGYDYWGQGTQVTVSS
  polyreactivity (PSR sort gate): low polyreactivity

## QVQLVESGGGLVQAGGSLRLSCAASGSIFGYYTMGWYRQAPGKERELVAAISQGGARTYYADSVKGRFTISRDNAKNTVYLQMNSLKPEDTAVYYCNAVSPAGYWFDYWGQGTQVTVSS
  polyreactivity (PSR sort gate): high polyreactivity

## QVQIEESGGVLVQAGGSLRLSCAASGSIFQPYALGWYRQAPGKERELVAAISSSGGSTTYADSVKGRFTISRDIAKNTVYLQMNSLKPEDTAVYYCAADSADDMGYWGQGTQVTVSS
  polyreactivity (PSR sort gate): low polyreactivity

## QVQLVESGGGLVQAGGTLRLSCAATGSTFNINAMGWYRQAPGKERELFAAITRGGTNYADSVKGRFTISRDNAKNTVYLQMNSLKPEDTAVYYCAARGTGGSVKVTSLQQGGYWGQGTQVTVSS
  polyreactivity (PSR sort gate): high polyreactivity
